Laboratory results taken from the supplement of paper PMC10219994.
± gives the standard deviation of the averaged measurements.

B1: library; a variant is named by its letters at N, in order (parent)
chain: GAGACCGCAACTGAAAAGTTGTGGNNNNNATAGTGAGTCGCTGCCTGCAAAGACACAACT

Variants of: B1
Test: ligation selection enrichment (abundance after / before one-round selection) (fold); higher = more template-directed ligation activity
Settings: with T7Psub CACGGAUGCUAAUACGACUCACUAUA; MgCl2 25 mM; 42 °C; 4 h; pH 8.5
Outline: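 Two independent reactions combined a T7-transcribed RNA ligase library with five randomized core positions (0.75 μM) and RNA substrate (6 μM) in 50 mM EPPS pH 8.5, 25 mM MgCl2, run for 4 h at 42 °C. The ligated products were sequenced on a MiSeq, and only reads with quality ≥30 at all randomized positions were counted. Enrichment is the abundance after ligation divided by the abundance before ligation.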

Compared with ACGAC, ACGAA is lower in ligation selection enrichment: 1.41 ± 0.032 for the first, 0.734 ± 0.16 for the second.

First: ACGAG
Second: ACGAT
The ligation selection enrichment of the first is lower: 0.745 ± 0.13 for the first, 16.5 ± 2.7 for the second.

First: CCGAG
Second: CCGAT
The ligation selection enrichment of the first is lower: 0.853 ± 0.037 for the first, 15.8 ± 4.6 for the second.

Going from CCGAC to CCGAA, the ligation selection enrichment falls from 1.37 ± 0.061 to 0.831 ± 0.069.

Compared with TGATC, TGATG is higher in ligation selection enrichment: 0.143 ± 0.062 for the first, 0.708 ± 0.08 for the second.

Going from TGATA to TGATT, the ligation selection enrichment rises from 0.4829 ± 0.0015 to 2.4 ± 0.61.

TCTGC and TCTGT are within error of each other in ligation selection enrichment: 0.143 ± 0.0073 for the first, 0.0815 ± 0.058 for the second.

Going from TCTGA to TCTGG, the ligation selection enrichment rises from 0.256 ± 0.023 to 0.417 ± 0.035.

First: CGCCT
Second: CGCCG
The ligation selection enrichment of the first is higher: 0.779 ± 0.21 for the first, 0.43 ± 0.033 for the second.

CGCCC and CGCCA are within error of each other in ligation selection enrichment: 0.161 ± 0.004 for the first, 0.146 ± 0.048 for the second.

TGCAC and TGCAG are within error of each other in ligation selection enrichment: 0.235 ± 0.059 for the first, 0.216 ± 0.0033 for the second.

First: TGCAA
Second: TGCAT
The ligation selection enrichment of the first is lower: 0.289 ± 0.065 for the first, 3.27 ± 0.44 for the second.

Compared with CGAAA, CGAAC is lower in ligation selection enrichment: 0.31 ± 0.015 for the first, 0.246 ± 0.0029 for the second.

First: CGAAT
Second: CGAAG
The ligation selection enrichment of the first is higher: 2.11 ± 0.22 for the first, 0.4199 ± 0.0032 for the second.

Going from GGAAA to GGAAT, the ligation selection enrichment rises from 0.282 ± 0.011 to 2.23 ± 0.17.

Going from GGAAC to GGAAG, the ligation selection enrichment rises from 0.226 ± 0.0027 to 0.341 ± 0.011.

Compared with GCCAC, GCCAT is higher in ligation selection enrichment: 0.176 ± 0.031 for the first, 1.25 ± 0.34 for the second.

GCCAA and GCCAG are within error of each other in ligation selection enrichment: 0.222 ± 0.045 for the first, 0.28 ± 0.021 for the second.

Going from ACCGC to ACCGA, the ligation selection enrichment rises from 0.182 ± 0.016 to 0.379 ± 0.054.

First: ACCGT
Second: ACCGG
The ligation selection enrichment of the first is lower: 0.232 ± 0.081 for the first, 0.409 ± 0.0084 for the second.

TCTCG and TCTCC are within error of each other in ligation selection enrichment: 0.368 ± 0.12 for the first, 0.267 ± 0.12 for the second.

First: TCGCC
Second: TCGCG
The ligation selection enrichment of the first is lower: 0.155 ± 0.028 for the first, 0.485 ± 0.036 for the second.

TCGCA and TCGCT are within error of each other in ligation selection enrichment: 0.269 ± 0.054 for the first, 0.299 ± 0.075 for the second.

First: TCGAC
Second: TCGAA
The ligation selection enrichment of the first is higher: 1.74 ± 0.36 for the first, 0.975 ± 0.19 for the second.

First: TCGAG
Second: TCGAT
The ligation selection enrichment of the first is lower: 0.7035 ± 0.0067 for the first, 13.3 ± 3.8 for the second.

CGCGT and CGCGC are within error of each other in ligation selection enrichment: 0.237 ± 0.0082 for the first, 0.223 ± 0.025 for the second.

Going from CGCGG to CGCGA, the ligation selection enrichment rises from 0.533 ± 0.12 to 1.1 ± 0.18.

First: CGAGT
Second: CGAGC
The ligation selection enrichment of the first is higher: 1.09 ± 0.25 for the first, 0.246 ± 0.036 for the second.

CGAGG and CGAGA are within error of each other in ligation selection enrichment: 0.422 ± 0.029 for the first, 0.348 ± 0.084 for the second.

Compared with CCTGA, CCTGT is lower in ligation selection enrichment: 0.26 ± 0.038 for the first, 0.138 ± 0.07 for the second.

Going from CCTGG to CCTGC, the ligation selection enrichment falls from 0.381 ± 0.061 to 0.128 ± 0.01.

Going from ACCCG to ACCCC, the ligation selection enrichment falls from 0.752 ± 0.054 to 0.194 ± 0.0053.

Compared with ACCCT, ACCCA is lower in ligation selection enrichment: 0.379 ± 0.15 for the first, 0.152 ± 0.013 for the second.

First: ACCAG
Second: ACCAT
The ligation selection enrichment of the first is lower: 0.207 ± 0.033 for the first, 0.866 ± 0.31 for the second.

Compared with ACCAA, ACCAC is higher in ligation selection enrichment: 0.144 ± 0.0063 for the first, 0.165 ± 0.0072 for the second.

First: AGAAC
Second: AGAAG
The ligation selection enrichment of the first is lower: 0.267 ± 0.06 for the first, 0.4 ± 0.033 for the second.

First: AGAAA
Second: AGAAT
The ligation selection enrichment of the first is lower: 0.306 ± 0.043 for the first, 3.78 ± 0.51 for the second.

Going from TGCGT to TGCGG, the ligation selection enrichment rises from 0.168 ± 0.021 to 0.221 ± 0.0095.

First: TGCGC
Second: TGCGA
The ligation selection enrichment of the first is lower: 0.217 ± 0.02 for the first, 2.41 ± 0.15 for the second.

Compared with AGCGA, AGCGG is lower in ligation selection enrichment: 2.74 ± 0.25 for the first, 0.213 ± 0.012 for the second.

AGCGC and AGCGT are within error of each other in ligation selection enrichment: 0.269 ± 0.043 for the first, 0.191 ± 0.054 for the second.

First: CCTAT
Second: CCTAG
The ligation selection enrichment of the first is lower: 0.149 ± 0.059 for the first, 0.356 ± 0.004 for the second.

CCTAA and CCTAC are within error of each other in ligation selection enrichment: 0.148 ± 0.0065 for the first, 0.14 ± 0.03 for the second.

Going from ACGCG to ACGCC, the ligation selection enrichment falls from 0.622 ± 0.021 to 0.153 ± 0.035.

Compared with ACGCT, ACGCA is lower in ligation selection enrichment: 0.449 ± 0.15 for the first, 0.248 ± 0.016 for the second.

First: CCCGA
Second: CCCGG
The ligation selection enrichment of the first is higher: 0.405 ± 0.013 for the first, 0.327 ± 0.049 for the second.

CCCGC and CCCGT are within error of each other in ligation selection enrichment: 0.163 ± 0.053 for the first, 0.207 ± 0.059 for the second.

TGAAC and TGAAG are within error of each other in ligation selection enrichment: 0.25 ± 0.0069 for the first, 0.271 ± 0.03 for the second.

First: TGAAA
Second: TGAAT
The ligation selection enrichment of the first is lower: 0.326 ± 0.022 for the first, 3.36 ± 0.95 for the second.

Going from GCCTG to GCCTC, the ligation selection enrichment falls from 0.624 ± 0.06 to 0.114 ± 0.0038.

GCCTA and GCCTT are within error of each other in ligation selection enrichment: 0.198 ± 0.017 for the first, 0.162 ± 0.02 for the second.

ACGGG and ACGGT are within error of each other in ligation selection enrichment: 0.165 ± 0.012 for the first, 0.169 ± 0.025 for the second.

First: ACGGC
Second: ACGGA
The ligation selection enrichment of the first is lower: 0.122 ± 0.01 for the first, 0.204 ± 0.033 for the second.

GGCCT and GGCCA are within error of each other in ligation selection enrichment: 0.408 ± 0.092 for the first, 0.241 ± 0.083 for the second.

First: GGCCC
Second: GGCCG
The ligation selection enrichment of the first is lower: 0.192 ± 0.0055 for the first, 0.746 ± 0.042 for the second.

Going from TCATG to TCATT, the ligation selection enrichment rises from 0.1699 ± 0.0013 to 0.327 ± 0.04.

Compared with AGATA, AGATC is lower in ligation selection enrichment: 0.533 ± 0.16 for the first, 0.204 ± 0.0068 for the second.

First: AGATT
Second: AGATG
The ligation selection enrichment of the first is higher: 1.66 ± 0.48 for the first, 0.602 ± 0.065 for the second.

GCGTA and GCGTC are within error of each other in ligation selection enrichment: 0.332 ± 0.038 for the first, 0.231 ± 0.09 for the second.

GCGTT and GCGTG are within error of each other in ligation selection enrichment: 0.288 ± 0.12 for the first, 0.272 ± 0.018 for the second.

Compared with CGCAC, CGCAG is lower in ligation selection enrichment: 0.339 ± 0.028 for the first, 0.2266 ± 0.0013 for the second.

Compared with CGCAA, CGCAT is higher in ligation selection enrichment: 0.29 ± 0.03 for the first, 3.7 ± 0.39 for the second.

TCCGT and TCCGG are within error of each other in ligation selection enrichment: 0.123 ± 0.096 for the first, 0.133 ± 0.0031 for the second.

Going from TCCGC to TCCGA, the ligation selection enrichment rises from 0.113 ± 0.026 to 0.205 ± 0.034.

Compared with ACTCG, ACTCT is lower in ligation selection enrichment: 0.535 ± 0.046 for the first, 0.248 ± 0.12 for the second.

Compared with ACTCA, ACTCC is higher in ligation selection enrichment: 0.217 ± 0.031 for the first, 0.321 ± 0.011 for the second.

Compared with CCGCG, CCGCA is lower in ligation selection enrichment: 0.499 ± 0.059 for the first, 0.206 ± 0.0029 for the second.

First: CCGCT
Second: CCGCC
The ligation selection enrichment of the first is higher: 0.4 ± 0.15 for the first, 0.148 ± 0.0024 for the second.

Going from ACCTA to ACCTC, the ligation selection enrichment falls from 0.18 ± 0.017 to 0.0933 ± 0.036.

Compared with ACCTG, ACCTT is lower in ligation selection enrichment: 0.4917 ± 0.0012 for the first, 0.117 ± 0.004 for the second.

GGCTC and GGCTT are within error of each other in ligation selection enrichment: 0.149 ± 0.0062 for the first, 0.164 ± 0.12 for the second.

First: GGCTA
Second: GGCTG
The ligation selection enrichment of the first is lower: 0.228 ± 0.037 for the first, 0.393 ± 0.032 for the second.

TCCTA and TCCTT are within error of each other in ligation selection enrichment: 0.147 ± 0.063 for the first, 0.232 ± 0.029 for the second.

Going from TCCTC to TCCTG, the ligation selection enrichment rises from 0.107 ± 0.011 to 0.246 ± 0.011.

First: GCGGG
Second: GCGGC
The ligation selection enrichment of the first is higher: 0.201 ± 0.0056 for the first, 0.103 ± 0.017 for the second.

Compared with GCGGA, GCGGT is lower in ligation selection enrichment: 0.334 ± 0.035 for the first, 0.186 ± 0.11 for the second.

First: ACTTG
Second: ACTTT
The ligation selection enrichment of the first is higher: 0.918 ± 0.18 for the first, 0.465 ± 0.065 for the second.

ACTTA and ACTTC are within error of each other in ligation selection enrichment: 0.172 ± 0.0078 for the first, 0.192 ± 0.049 for the second.

Going from GGATT to GGATC, the ligation selection enrichment falls from 1.31 ± 0.31 to 0.188 ± 0.03.

Compared with GGATA, GGATG is higher in ligation selection enrichment: 0.432 ± 0.027 for the first, 0.732 ± 0.14 for the second.

Compared with AGAGG, AGAGC is lower in ligation selection enrichment: 0.288 ± 0.045 for the first, 0.196 ± 0.028 for the second.

Going from AGAGT to AGAGA, the ligation selection enrichment rises from 0.253 ± 0.024 to 0.338 ± 0.038.

First: AGGAC
Second: AGGAA
The ligation selection enrichment of the first is higher: 14.4 ± 2.2 for the first, 2.74 ± 0.034 for the second.

Work on CGGAA yielded a ligation selection enrichment of 1.02 ± 0.075.
